Reference: patent US20120041177A1 (SPIBER TECHNOLOGIES AB C O RISING, published 2012)

T1: NT-REP4-CT
T1 construct: Stood in the assay as a solid fiber (about 0.5 cm, about 50 ug) or as a cast film; also called NT4RepCT
T1 chain: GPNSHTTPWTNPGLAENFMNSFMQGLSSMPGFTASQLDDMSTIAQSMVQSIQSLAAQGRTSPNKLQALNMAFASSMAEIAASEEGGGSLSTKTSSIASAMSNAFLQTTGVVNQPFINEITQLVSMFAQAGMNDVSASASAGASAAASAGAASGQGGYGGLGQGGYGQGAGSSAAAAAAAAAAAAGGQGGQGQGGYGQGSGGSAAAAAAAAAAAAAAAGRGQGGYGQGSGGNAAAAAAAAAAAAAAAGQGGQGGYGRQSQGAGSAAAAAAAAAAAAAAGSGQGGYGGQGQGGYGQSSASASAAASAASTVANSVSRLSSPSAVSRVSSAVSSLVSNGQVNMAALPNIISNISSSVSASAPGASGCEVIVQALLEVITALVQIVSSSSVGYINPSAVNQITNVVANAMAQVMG

T2: NT2-REP4-CT
T2 construct: Stood in the assay as a solid fiber; also called NTNT-REP-CT; HisNTNT4RepCT
T2 chain: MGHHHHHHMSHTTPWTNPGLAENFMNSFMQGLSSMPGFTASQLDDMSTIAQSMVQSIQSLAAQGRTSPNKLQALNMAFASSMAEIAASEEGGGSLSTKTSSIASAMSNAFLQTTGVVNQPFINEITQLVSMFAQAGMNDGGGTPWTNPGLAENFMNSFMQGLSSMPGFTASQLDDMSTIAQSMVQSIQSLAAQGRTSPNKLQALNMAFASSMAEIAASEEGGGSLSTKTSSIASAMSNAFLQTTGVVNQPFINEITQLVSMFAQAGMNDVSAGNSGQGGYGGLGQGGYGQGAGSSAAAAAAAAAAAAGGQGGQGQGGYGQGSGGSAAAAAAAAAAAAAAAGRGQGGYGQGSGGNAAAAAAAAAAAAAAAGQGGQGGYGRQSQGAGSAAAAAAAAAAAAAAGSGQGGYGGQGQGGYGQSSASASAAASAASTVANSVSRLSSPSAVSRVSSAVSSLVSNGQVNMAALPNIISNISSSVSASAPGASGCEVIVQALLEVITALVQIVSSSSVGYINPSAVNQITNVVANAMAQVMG

B1: NT4Rep (other)
chain: GSGNSHTTPWTNPGLAENFMNSFMQGLSSMPGFTASQLDDMSTIAQSMVQSIQSLAAQGRTSPNKLQALNMAFASSMAEIAASEEGGGSLSTKTSSIASAMSNAFLQTTGVVNQPFINEITQLVSMFAQAGMNDVSASASAGASAAASAGAASGQGGYGGLGQGGYGQGAGSSAAAAAAAAAAAAGGQGGQGQGGYGQGSGGSAAAAAAAAAAAAAAAGRGQGGYGQGSGGNAAAAAAAAAAAAAAAGQGGQGGYGRQSQGAGSAAAAAAAAAAAAAAGSGQGGYGGQGQGGYGQS
notes: Non-natural minispidroin derived from Euprosthenops australis MaSp1; Released from His6TrxHis6 by thrombin
B2: NTHis (other)
chain: MSHTTPWTNPGLAENFMNSFMQGLSSMPGFTASQLDDMSTIAQSMVQSIQSLAAQGRTSPNKLQALNMAFASSMAEIAASEEGGGSLSTKTSSIASAMSNAFLQTTGVVNQPFINEITQLVSMFAQAGMNDVSASASAGASAAASAGAAALEHHHHHH
notes: Soluble protein, used at 5 mg/ml; also called NT as an N-terminal fusion to His6; soluble NT
B3: NT4RepCT (as an N-terminal fusion to His6) (other)
chain: MKASHTTPWTNPGLAENFMNSFMQGLSSMPGFTASQLDDMSTIAQSMVQSIQSLAAQGRTSPNKLQALNMAFASSMAEIAASEEGGGSLSTKTSSIASAMSNAFLQTTGVVNQPFINEITQLVSMFAQAGMNDVSASASAGASAAASAGAASGQGGYGGLGQGGYGQGAGSSAAAAAAAAAAAAGGQGGQGQGGYGQGSGGSAAAAAAAAAAAAAAAGRGQGGYGQGSGGNAAAAAAAAAAAAAAAGQGGQGGYGRQSQGAGSAAAAAAAAAAAAAAGSGQGGYGGQGQGGYGQSSASASAAASAASTVANSVSRLSSPSAVSRVSSAVSSLVSNGQVNMAALPNIISNISSSVSASAPGASGCEVIVQALLEVITALVQIVSSSSVGYINPSAVNQITNVVANAMAQVMGKLAAALEHHHHHH
notes: also called NT4RepCTHis
B4: NT2-Brichos (other)
chain: MGHHHHHHMSHTTPWTNPGLAENFMNSFMQGLSSMPGFTASQLDDMSTIAQSMVQSIQSLAAQGRTSPNKLQALNMAFASSMAEIAASEEGGGSLSTKTSSIASAMSNAFLQTTGVVNQPFINEITQLVSMFAQAGMNDGGGTPWTNPGLAENFMNSFMQGLSSMPGFTASQLDDMSTIAQSMVQSIQSLAAQGRTSPNKLQALNMAFASSMAEIAASEEGGGSLSTKTSSIASAMSNAFLQTTGVVNQPFINEITQLVSMFAQAGMNDVSAGNSEHLVTTATFSIGSTGLVVYDYQQLLIAYKPAPGTCCYIMKIAPESIPSLEALTRKVHNFQMECSLQAKPAVPTSKLGQAEGRDAGSAPSGGDPAFLGMAVSTLCGEVPLYYI
notes: Soluble fusion protein with His6, used at 5 mg/ml; also called NT-NT-Brichos; NTNTBrichos
B5: NT5Rep (other)
chain: GSGNSHTTPWTNPGLAENFMNSFMQGLSSMPGFTASQLDDMSTIAQSMVQSIQSLAAQGRTSPNKLQALNMAFASSMAEIAASEEGGGSLSTKTSSIASAMSNAFLQTTGVVNQPFINEITQLVSMFAQAGMNDVSASASAGASAAASAGAPGYSPAPSYSSGGYASSAASAAAAAGQGGPGGYGPAPNQGASSAAAAAAGSGQGPSGPYGTSYQISTQYTQTTTSQGQGYGSSSAGAAAAGAAGAGQGGYGGQGQGGYGQGAGGAAAAAAAAAAAAAAAGQGGQGGGGYGQGGQGGQGGQGQGGYGQGAGSSAAAAAAAAAAAAAAGRGQGGYGPGSGG
notes: as for B1
B6: NT, N-terminal fragment of major ampullate spidroin (MaSp) 1 from Euprosthenops australis (other)
chain: GSGNSHTTPWTNPGLAENFMNSFMQGLSSMPGFTASQLDDMSTIAQSMVQSIQSLAAQGRTSPNKLQALNMAFASSMAEIAASEEGGGSLSTKTSSIASAMSNAFLQTTGVVNQPFINEITQLVSMFAQAGMNDVSA
notes: Expressed as a C-terminal fusion to His6TrxHis6 and released by thrombin

Experiments:
[1] = biological target: the molecule itself; assay: self-polymerisation at pH 6; macroscopic formation, SEM and turbidimetry
[2] = biological target: T1, NT-REP4-CT; assay: capture of soluble protein on fibers at pH 6, release at pH 7, SDS-PAGE; 300 mM NaCl decreased capture at pH 6
Method: (§1) Fibers (˜0.5 cm long, ˜50 ug) of NT-REP₄-CT (SEQ ID NO 20), NT₂-REP₄-CT (SEQ ID NO 23) and REP₄-CT (SEQ ID NO 2, control) were submerged in 100 μl solution of 5 mg/ml soluble NTHis (SEQ ID NO 30) or NT₂-Brichos (SEQ ID NO 32) at pH 8 for 10 minutes. The pH was decreased by addition of 400 ul sodium phosphate buffer (NaP) to pH 6 and incubated for 10 minutes to allow assembly of soluble NT to the fiber. The fibers were transferred to 500 μl of NaP at pH 6, and washed twice. Finally, the fibers were transferred to 500 μl of NaP at pH 7, and incubated 10 minutes to allow release of soluble NT. The same was done in the presence of 300 mM NaCl in all pH 6 NaP buffers. Samples from the different solutions were analysed on SDS-PAGE.

[3] = biological target: T2, NT2-REP4-CT; assay: as above
Method: as §1

[4] = biological target: the molecule itself; assay: self-polymerisation at pH 6; macroscopic formation and SEM
Method: Conditions for fiber formation were essentially as described in Stark, M. et al. Biomacromolecules 8, 1695-1701, (2007). Approximately 25 μM of each protein was incubated in 20 mM Na phosphate buffer at pH 7 or 6, with or without 300 mM NaCl. At different time points, samples were applied on SEM stubs, where they were air-dried and vacuum-coated with gold and palladium. The samples were photographed with a LEO 1550 FEG microscope (Carl Zeiss, Oberkochen, Germany) using an acceleration voltage of 5 kV.
The arrows in FIG. 3 indicate when macroscopic formations first were detected, showing that at pH 7 the presence of NT delays polymerisation, while at pH 6 it accelerates polymerisation. This is independent of whether the C-terminal fragment (filled circle) is present or not (indicated by the striped circle). Moreover, the presence of NT results in more ordered polymerisation, exemplified by the scanning electron micrographs in FIG. 3, which are representative early polymers for all constructs at pH 7 (above time scale) or for NT4RepCT at pH 6 (below time scale).

[5] = biological target: the molecule itself; assay: self-polymerisation at pH 6
[6] = biological target: the molecule itself; assay: self-association; dynamic light scattering and turbidimetry; reversed by an increase of pH, blocked by high levels of salt
Method: The effect of pH and ionic strength on the hydrodynamic diameter of NT and NTΔHis6 (to exclude that pH dependent effects are caused by His at position 6) was measured at 25±0.1° C. in a Zetasizer Nano S from Malvern Instruments (Worcestershire, UK) equipped with a 633 nm HeNe laser. The buffers were filtered through nylon filters prior to use. The sample volume was 50 μl and ZEN2112 low glass cuvettes were used. The attenuation and measurement positions from the cuvette wall (4.65 mm) were kept constant for all analyses. Six scans were performed for each sample. All samples were analyzed in triplicate. The hydrodynamic diameter (dH) was calculated using the General Purpose algorithm in the Malvern software for DLS analysis, which correlates the diffusion coefficient to the hydrodynamic diameter through the Stokes-Einstein equation: […]
NT was subjected to dynamic light scattering at pH 6-7 and 0-300 mM NaCl. See also Table 3

Binder | binding result [2] | binding result [3] | also measured
B1 | – | – | binding result [1]: binds
B2 | binds | binds | –
B3 | – | – | binding result [4]: binds
B4 | binds | binds | –
B5 | – | – | binding result [5]: binds
B6 | – | – | binding result [6]: binds
